Details of this series: species or system Rats. The conditions noted are these: rat, in vivo.

Read-outs that look alike come from different tables or passages of the source.

For interferon, the “Mean peak serum interferon concentration” value (1 mg/kg) is listed as 79±100 and the “Mean peak serum interferon concentration” value (po, 1 mg/kg) is given as 1951±1857. For the compound `O=C(O)CCCc1ccc(NC(=O)COc2ccccc2)cc1` [Compound 9, 4-(4-(phenoxyacetyl)aminophenyl)butyric acid], for the setting “50 mg/kg”, the “Mean peak serum interferon concentration” value amounted to 2611±695.

The record behind these values is US7071214B2, “Compounds and compositions for delivering active agents” (Emisphere Technologies, Inc., priority 1997, dated 2006).
